The labels stand for the following.
T1: human GIP receptor (human, UniProt P48546 22-466)
T1 sequence (looked up): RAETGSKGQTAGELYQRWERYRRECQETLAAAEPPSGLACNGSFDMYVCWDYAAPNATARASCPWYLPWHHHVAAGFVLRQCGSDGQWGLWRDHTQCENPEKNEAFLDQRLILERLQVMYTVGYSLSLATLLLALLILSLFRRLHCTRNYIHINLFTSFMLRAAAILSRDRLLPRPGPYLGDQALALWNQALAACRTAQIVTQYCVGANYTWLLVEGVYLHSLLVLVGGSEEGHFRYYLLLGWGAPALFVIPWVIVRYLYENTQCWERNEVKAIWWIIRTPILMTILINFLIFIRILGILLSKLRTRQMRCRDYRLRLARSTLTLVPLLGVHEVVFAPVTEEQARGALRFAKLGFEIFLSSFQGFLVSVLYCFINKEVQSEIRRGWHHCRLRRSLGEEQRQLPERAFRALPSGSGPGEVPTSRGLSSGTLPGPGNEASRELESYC

B1: exendin-4 derivative SEQ ID NO: 14 (peptide)
peptide: H[Aib]QGTFTSDLSKQK([γGlu-γGlu-Palmitoyl])DEQRAKLFIEWL[Aib]K[dA]GPSSGAPPPS-NH2
modifications: N-terminus assumed
SMILES: CCCCCCCCCCCCCCCC(=O)N[C@@H](CCC(=O)N[C@@H](CCC(=O)NCCCC[C@H](NC(=O)[C@H](CCC(N)=O)NC(=O)[C@H](CCCCN)NC(=O)[C@H](CO)NC(=O)[C@H](CC(C)C)NC(=O)[C@H](CC(=O)O)NC(=O)[C@H](CO)NC(=O)[C@@H](NC(=O)[C@H](Cc1ccccc1)NC(=O)[C@@H](NC(=O)CNC(=O)[C@H](CCC(N)=O)NC(=O)C(C)(C)NC(=O)[C@@H](N)Cc1c[nH]cn1)[C@@H](C)O)[C@@H](C)O)C(=O)N[C@@H](CC(=O)O)C(=O)N[C@@H](CCC(=O)O)C(=O)N[C@@H](CCC(N)=O)C(=O)N[C@@H](CCCNC(=N)N)C(=O)N[C@@H](C)C(=O)N[C@@H](CCCCN)C(=O)N[C@@H](CC(C)C)C(=O)N[C@@H](Cc1ccccc1)C(=O)N[C@H](C(=O)N[C@@H](CCC(=O)O)C(=O)N[C@@H](Cc1c[nH]c2ccccc12)C(=O)N[C@@H](CC(C)C)C(=O)NC(C)(C)C(=O)N[C@@H](CCCCN)C(=O)N[C@H](C)C(=O)NCC(=O)N1CCC[C@H]1C(=O)N[C@@H](CO)C(=O)N[C@@H](CO)C(=O)NCC(=O)N[C@@H](C)C(=O)N1CCC[C@H]1C(=O)N1CCC[C@H]1C(=O)N1CCC[C@H]1C(=O)N[C@@H](CO)C(N)=O)[C@@H](C)CC)C(=O)O)C(=O)O
B2: exendin-4 derivative SEQ ID NO: 17 (peptide)
peptide: H[Aib]QGTFTSDLSKQK([AEEA-AEEA-γGlu-Stearoyl])DEQRAKLFIEWL[Aib]AGGPSSGAPPPS-NH2
modifications: N-terminus assumed
SMILES: CCCCCCCCCCCCCCCCCC(=O)N[C@@H](CCC(=O)NCCOCCOCC(=O)NCCOCCOCC(=O)NCCCC[C@H](NC(=O)[C@H](CCC(N)=O)NC(=O)[C@H](CCCCN)NC(=O)[C@H](CO)NC(=O)[C@H](CC(C)C)NC(=O)[C@H](CC(=O)O)NC(=O)[C@H](CO)NC(=O)[C@@H](NC(=O)[C@H](Cc1ccccc1)NC(=O)[C@@H](NC(=O)CNC(=O)[C@H](CCC(N)=O)NC(=O)C(C)(C)NC(=O)[C@@H](N)Cc1c[nH]cn1)[C@@H](C)O)[C@@H](C)O)C(=O)N[C@@H](CC(=O)O)C(=O)N[C@@H](CCC(=O)O)C(=O)N[C@@H](CCC(N)=O)C(=O)N[C@@H](CCCNC(=N)N)C(=O)N[C@@H](C)C(=O)N[C@@H](CCCCN)C(=O)N[C@@H](CC(C)C)C(=O)N[C@@H](Cc1ccccc1)C(=O)N[C@H](C(=O)N[C@@H](CCC(=O)O)C(=O)N[C@@H](Cc1c[nH]c2ccccc12)C(=O)N[C@@H](CC(C)C)C(=O)NC(C)(C)C(=O)N[C@@H](C)C(=O)NCC(=O)NCC(=O)N1CCC[C@H]1C(=O)N[C@@H](CO)C(=O)N[C@@H](CO)C(=O)NCC(=O)N[C@@H](C)C(=O)N1CCC[C@H]1C(=O)N1CCC[C@H]1C(=O)N1CCC[C@H]1C(=O)N[C@@H](CO)C(N)=O)[C@@H](C)CC)C(=O)O
B3: exendin-4 derivative SEQ ID NO: 7 (peptide)
peptide: H[Aib]QGTFTSDLSKQK([γGlu-γGlu-Palmitoyl])DEQRAKLFIEWL[Aib]A[dA]GPSSGAPPPS-NH2
modifications: N-terminus assumed
SMILES: CCCCCCCCCCCCCCCC(=O)N[C@@H](CCC(=O)N[C@@H](CCC(=O)NCCCC[C@H](NC(=O)[C@H](CCC(N)=O)NC(=O)[C@H](CCCCN)NC(=O)[C@H](CO)NC(=O)[C@H](CC(C)C)NC(=O)[C@H](CC(=O)O)NC(=O)[C@H](CO)NC(=O)[C@@H](NC(=O)[C@H](Cc1ccccc1)NC(=O)[C@@H](NC(=O)CNC(=O)[C@H](CCC(N)=O)NC(=O)C(C)(C)NC(=O)[C@@H](N)Cc1c[nH]cn1)[C@@H](C)O)[C@@H](C)O)C(=O)N[C@@H](CC(=O)O)C(=O)N[C@@H](CCC(=O)O)C(=O)N[C@@H](CCC(N)=O)C(=O)N[C@@H](CCCNC(=N)N)C(=O)N[C@@H](C)C(=O)N[C@@H](CCCCN)C(=O)N[C@@H](CC(C)C)C(=O)N[C@@H](Cc1ccccc1)C(=O)N[C@H](C(=O)N[C@@H](CCC(=O)O)C(=O)N[C@@H](Cc1c[nH]c2ccccc12)C(=O)N[C@@H](CC(C)C)C(=O)NC(C)(C)C(=O)N[C@@H](C)C(=O)N[C@H](C)C(=O)NCC(=O)N1CCC[C@H]1C(=O)N[C@@H](CO)C(=O)N[C@@H](CO)C(=O)NCC(=O)N[C@@H](C)C(=O)N1CCC[C@H]1C(=O)N1CCC[C@H]1C(=O)N1CCC[C@H]1C(=O)N[C@@H](CO)C(N)=O)[C@@H](C)CC)C(=O)O)C(=O)O
B4: exendin-4 derivative SEQ ID NO: 18 (peptide)
peptide: H[Aib]QGTFTSDLSKQK([AEEA-AEEA-AEEA-Stearoyl])DEQRAKLFIEWL[Aib]AGGPSSGAPPPS-NH2
modifications: N-terminus assumed
SMILES: CCCCCCCCCCCCCCCCCC(=O)NCCOCCOCC(=O)NCCOCCOCC(=O)NCCOCCOCC(=O)NCCCC[C@H](NC(=O)[C@H](CCC(N)=O)NC(=O)[C@H](CCCCN)NC(=O)[C@H](CO)NC(=O)[C@H](CC(C)C)NC(=O)[C@H](CC(=O)O)NC(=O)[C@H](CO)NC(=O)[C@@H](NC(=O)[C@H](Cc1ccccc1)NC(=O)[C@@H](NC(=O)CNC(=O)[C@H](CCC(N)=O)NC(=O)C(C)(C)NC(=O)[C@@H](N)Cc1c[nH]cn1)[C@@H](C)O)[C@@H](C)O)C(=O)N[C@@H](CC(=O)O)C(=O)N[C@@H](CCC(=O)O)C(=O)N[C@@H](CCC(N)=O)C(=O)N[C@@H](CCCNC(=N)N)C(=O)N[C@@H](C)C(=O)N[C@@H](CCCCN)C(=O)N[C@@H](CC(C)C)C(=O)N[C@@H](Cc1ccccc1)C(=O)N[C@H](C(=O)N[C@@H](CCC(=O)O)C(=O)N[C@@H](Cc1c[nH]c2ccccc12)C(=O)N[C@@H](CC(C)C)C(=O)NC(C)(C)C(=O)N[C@@H](C)C(=O)NCC(=O)NCC(=O)N1CCC[C@H]1C(=O)N[C@@H](CO)C(=O)N[C@@H](CO)C(=O)NCC(=O)N[C@@H](C)C(=O)N1CCC[C@H]1C(=O)N1CCC[C@H]1C(=O)N1CCC[C@H]1C(=O)N[C@@H](CO)C(N)=O)[C@@H](C)CC
B5: exendin-4 derivative SEQ ID NO: 6 (peptide)
peptide: H[Aib]QGTFTSDLSKQK([γGlu-Stearoyl])DEQRAKLFIEWL[Aib]A[dA]GPSSGAPPPS-NH2
modifications: N-terminus assumed
SMILES: CCCCCCCCCCCCCCCCCC(=O)N[C@@H](CCC(=O)NCCCC[C@H](NC(=O)[C@H](CCC(N)=O)NC(=O)[C@H](CCCCN)NC(=O)[C@H](CO)NC(=O)[C@H](CC(C)C)NC(=O)[C@H](CC(=O)O)NC(=O)[C@H](CO)NC(=O)[C@@H](NC(=O)[C@H](Cc1ccccc1)NC(=O)[C@@H](NC(=O)CNC(=O)[C@H](CCC(N)=O)NC(=O)C(C)(C)NC(=O)[C@@H](N)Cc1c[nH]cn1)[C@@H](C)O)[C@@H](C)O)C(=O)N[C@@H](CC(=O)O)C(=O)N[C@@H](CCC(=O)O)C(=O)N[C@@H](CCC(N)=O)C(=O)N[C@@H](CCCNC(=N)N)C(=O)N[C@@H](C)C(=O)N[C@@H](CCCCN)C(=O)N[C@@H](CC(C)C)C(=O)N[C@@H](Cc1ccccc1)C(=O)N[C@H](C(=O)N[C@@H](CCC(=O)O)C(=O)N[C@@H](Cc1c[nH]c2ccccc12)C(=O)N[C@@H](CC(C)C)C(=O)NC(C)(C)C(=O)N[C@@H](C)C(=O)N[C@H](C)C(=O)NCC(=O)N1CCC[C@H]1C(=O)N[C@@H](CO)C(=O)N[C@@H](CO)C(=O)NCC(=O)N[C@@H](C)C(=O)N1CCC[C@H]1C(=O)N1CCC[C@H]1C(=O)N1CCC[C@H]1C(=O)N[C@@H](CO)C(N)=O)[C@@H](C)CC)C(=O)O
B6: exendin-4 derivative SEQ ID NO: 16 (peptide)
peptide: H[Aib]QGTFTSDLSKQK([AEEA-AEEA-γGlu-Palmitoyl])DEQRAKLFIEWL[Aib]AGGPSSGAPPPS-NH2
modifications: N-terminus assumed
SMILES: CCCCCCCCCCCCCCCC(=O)N[C@@H](CCC(=O)NCCOCCOCC(=O)NCCOCCOCC(=O)NCCCC[C@H](NC(=O)[C@H](CCC(N)=O)NC(=O)[C@H](CCCCN)NC(=O)[C@H](CO)NC(=O)[C@H](CC(C)C)NC(=O)[C@H](CC(=O)O)NC(=O)[C@H](CO)NC(=O)[C@@H](NC(=O)[C@H](Cc1ccccc1)NC(=O)[C@@H](NC(=O)CNC(=O)[C@H](CCC(N)=O)NC(=O)C(C)(C)NC(=O)[C@@H](N)Cc1c[nH]cn1)[C@@H](C)O)[C@@H](C)O)C(=O)N[C@@H](CC(=O)O)C(=O)N[C@@H](CCC(=O)O)C(=O)N[C@@H](CCC(N)=O)C(=O)N[C@@H](CCCNC(=N)N)C(=O)N[C@@H](C)C(=O)N[C@@H](CCCCN)C(=O)N[C@@H](CC(C)C)C(=O)N[C@@H](Cc1ccccc1)C(=O)N[C@H](C(=O)N[C@@H](CCC(=O)O)C(=O)N[C@@H](Cc1c[nH]c2ccccc12)C(=O)N[C@@H](CC(C)C)C(=O)NC(C)(C)C(=O)N[C@@H](C)C(=O)NCC(=O)NCC(=O)N1CCC[C@H]1C(=O)N[C@@H](CO)C(=O)N[C@@H](CO)C(=O)NCC(=O)N[C@@H](C)C(=O)N1CCC[C@H]1C(=O)N1CCC[C@H]1C(=O)N1CCC[C@H]1C(=O)N[C@@H](CO)C(N)=O)[C@@H](C)CC)C(=O)O

Starred links: 1 amine or outer side, 2 acyl side, 3 side chain; linkers in the order of their positions; H or OH if unused. Non-standard residues stand in square brackets, D forms with d. Groups on a side chain read outwards from the residue. No end group written: not given here. *: point of attachment. γGlu = O=C(O)[C@H](CCC(=O)[*:2])N[*:1]; Stearoyl = CCCCCCCCCCCCCCCCCC(=O)*; Palmitoyl = CCCCCCCCCCCCCCCC(=O)*; AEEA = NCCOCCOCC(=O)O; Aib = CC(C)(N)C(=O)O

In the first assay the target is T1, human GIP receptor. The assay can be described thus: cell-based or functional assay.
Turning to B1, the “EC50 hGIP-R (cAMP formation)” value was 6.53 nM.

B2: the “EC50 hGIP-R (cAMP formation)” value is 0.906 nM.

B3: the “EC50 hGIP-R (cAMP formation)” value came to 7.62 nM.

As for B4, the “EC50 hGIP-R (cAMP formation)” value worked out at 2.16 nM.

With B5, the “EC50 hGIP-R (cAMP formation)” value was 2.76 nM.

Turning to B6, the “EC50 hGIP-R (cAMP formation)” value was 1.87 nM.

A further assay deals with human GLP-1 receptor (human, UniProt P43220 24-463). The experiment in a line: cell-based or functional assay.
On to B1, for which the “EC50 hGLP-1R (cAMP formation)” value was 0.0041 nM.

For B2, the “EC50 hGLP-1R (cAMP formation)” value is 0.0028 nM.

Regarding B3, the “EC50 hGLP-1R (cAMP formation)” value stood at 0.0034 nM.

Regarding B4, the “EC50 hGLP-1R (cAMP formation)” value stood at 0.0083 nM.

On to B5, for which the “EC50 hGLP-1R (cAMP formation)” value stood at 0.0141 nM.

As for B6, the “EC50 hGLP-1R (cAMP formation)” value was found to be 0.002 nM.

The target in the next assay is human glucagon receptor (human, UniProt P47871 26-477). The experiment in a line: cell-based or functional assay.
Sequence of human glucagon receptor (P47871 26-477): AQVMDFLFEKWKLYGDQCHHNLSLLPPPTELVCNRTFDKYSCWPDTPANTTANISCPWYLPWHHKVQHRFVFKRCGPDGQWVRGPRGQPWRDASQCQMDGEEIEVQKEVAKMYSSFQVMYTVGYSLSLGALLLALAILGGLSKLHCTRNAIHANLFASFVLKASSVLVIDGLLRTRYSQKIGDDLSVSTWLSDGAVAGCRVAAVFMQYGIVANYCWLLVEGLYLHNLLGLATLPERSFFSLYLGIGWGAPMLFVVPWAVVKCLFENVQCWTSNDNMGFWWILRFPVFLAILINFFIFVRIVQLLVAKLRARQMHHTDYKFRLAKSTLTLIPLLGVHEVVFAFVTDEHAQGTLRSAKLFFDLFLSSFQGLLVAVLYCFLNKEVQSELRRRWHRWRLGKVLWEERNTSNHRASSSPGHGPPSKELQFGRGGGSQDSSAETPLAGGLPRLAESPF
As to B1, the “EC50 hGlucagon-R (cAMP formation)” value was found to be 0.194 nM.

With B2, the “EC50 hGlucagon-R (cAMP formation)” value was found to be 0.0162 nM.

B3: the “EC50 hGlucagon-R (cAMP formation)” value is 0.101 nM.

As for B4, the “EC50 hGlucagon-R (cAMP formation)” value amounted to 0.0086 nM.

Turning to B5, the “EC50 hGlucagon-R (cAMP formation)” value turned out to be 0.136 nM.

On to B6, for which the “EC50 hGlucagon-R (cAMP formation)” value worked out at 0.042 nM.

Values taken from patent US20150315260A1 (Sanofi, published 2015).
